The assay has as its target patient IgG preparation from the immunoadsorption column regenerate of an α1-AR agAAB positive patient with mild vascular dementia. In words: competition ELISA: free loop1 peptide (0.3 nM to 5 µM) preincubated with patient IgG, binding to immobilised loop1 peptide read. A general note: An ELISA detects its analyte on a solid surface through an enzyme-linked reagent.

The term EC50 denotes the concentration that produces a half-maximal response. Take LGYWAFGRVFCN [free (soluble) synthetic peptide corresponding to extracellular loop1 of the human α1-AR]: the EC50 worked out at 30 nM.

Source of the values: patent US20140199318A1.
